The values that follow come from US20030211964, “Method of inhibiting pathogenicity of infectious agents” (Massachusetts Institute of Technology, published 2003).

For series [1], the target named is T1, Zα domain of ADAR1 (hZαADAR1) (Homo sapiens) (UniProt P55265).
T1 sequence: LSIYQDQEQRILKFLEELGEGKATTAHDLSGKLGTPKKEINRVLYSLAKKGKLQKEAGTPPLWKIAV
The experiment in a line: SPR. The conditions noted are these: partial bromination (stabilises Z form); Z-DNA stabilised by bromination.

Series [2] addresses T2, ZαADAR1 Y177F Y177F (Homo sapiens) (UniProt P55265).
T2 sequence: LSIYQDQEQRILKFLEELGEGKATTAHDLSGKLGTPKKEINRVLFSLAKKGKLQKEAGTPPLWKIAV
The experiment in a line: SPR. To be noted: partial bromination (stabilises Z form); Z-DNA stabilised by bromination.

In series [3] the target is T3, ZαADAR1 Y177A Y177A (Homo sapiens) (UniProt P55265).
T3 sequence: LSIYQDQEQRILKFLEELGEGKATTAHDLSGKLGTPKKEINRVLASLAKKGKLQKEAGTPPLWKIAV
The series is described as follows: SPR. To be noted: partial bromination (stabilises Z form); Z-DNA stabilised by bromination.

In series [4] the target is T4, Zα domain of ADAR1 (hZαADAR1) (Homo sapiens, UniProt P55265 SEQ:1-67).
T4 sequence: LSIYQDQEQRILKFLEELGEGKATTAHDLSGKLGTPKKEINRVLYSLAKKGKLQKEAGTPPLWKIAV
The series is described as follows: CD at 255 nm; rapid, complete B-to-Z conversion; 90 uM bp DNA, 30 uM protein.

Series [5] concerns the target T5, Zβ domain of ADAR1 (hZβADAR1) (Homo sapiens, UniProt P55265 SEQ:1-62).
T5 sequence: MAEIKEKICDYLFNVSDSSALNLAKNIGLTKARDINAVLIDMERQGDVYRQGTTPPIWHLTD
The series is described as follows: CD at 255 nm; no change over time.

In the next series the target is T6, ZαADAR1 Q186A (Homo sapiens, UniProt P55265 SEQ:1-67, Q186A).
T6 sequence: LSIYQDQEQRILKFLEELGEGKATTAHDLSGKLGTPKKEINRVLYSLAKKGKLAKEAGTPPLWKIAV
The series is described as follows: CD at 255 nm; rate comparable to wild type.

A further series addresses T7, ZαADAR1 E171A (Homo sapiens, UniProt P55265 SEQ:1-67, E171A).
T7 sequence: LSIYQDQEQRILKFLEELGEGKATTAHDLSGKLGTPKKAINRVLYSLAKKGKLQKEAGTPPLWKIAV
The experiment in a line: CD at 255 nm; rate comparable to wild type.

In the case of partially brominated poly(dG-dC), the results for the Kd in series [1], in series [2] and in series [3] were 0.04 µM, 0.35 µM and 0.7 µM, respectively.

B1: d(CG)6 (dsDNA)
DNA 1: CGCGCGCGCGCG
DNA 2: CGCGCGCGCGCG
As for B1, the binding result was “binds” in series [4], “no binding” in series [5], “binds” with ZαADAR1 Q186A and “binds” in the series with ZαADAR1 E171A.
